According to paper PMC10300371, “Categorization of Escherichia coli outer membrane proteins by dependence on accessory proteins of the β-barrel assembly machinery complex” (The Journal of Biological Chemistry, 2023):

Target: the molecule itself
Test: native gel or EMSA; 35S-labelled protein incubated with EMM at 30 °C for 10 to 90 min, EMM solubilised in 1.5% DDM, BN-PAGE and radioimaging; monomer to trimer

Protein | stoichiometry N
OmpF (natural protein, E. coli, UniProt P02931 23-362, looked up, 35S-methionine and 35S-cysteine (radiolabel), Made as a monomer and seen as a trimer after assembly into EMM; also called 35S-labeled OmpF; major porin; source: in vitro translated, rabbit reticulocyte lysate (Promega), 35S-labelled; assembled into EMM) AEIYNKDGNKVDLYGKAVGLHYFSKGNGENSYGGNGDMTYARLGFKGETQINSDLTGYGQWEYNFQGNNSEGADAQTGNKTRLAFAGLKYADVGSFDYGRNYGVVYDALGYTDMLPEFGGDTAYSDDFFVGRVGGVATYRNSNFFGLVDGLNFAVQYLGKNERDTARRSNGDGVGGSISYEYEGFGIVGAYGAADRTNLQEAQPLGNGKKAEQWATGLKYDANNIYLAANYGETRNATPITNKFTNTSGFANKTQDVLLVAQYQFDFGLRPSIAYTKSKAKDVEGIGDVDLVNYFEVGATYYFNKNMSTYVDYIINQIDSDNKLGVGSDDTVAVGIVYQF | 3
LamB (natural protein, E. coli, UniProt P02943 26-446, looked up, 35S-methionine and 35S-cysteine (radiolabel), Made as a monomer and seen as a trimer after assembly into EMM; also called 35S-labeled LamB; maltoporin; source: in vitro translated, rabbit reticulocyte lysate (Promega), 35S-labelled; assembled into EMM) VDFHGYARSGIGWTGSGGEQQCFQTTGAQSKYRLGNECETYAELKLGQEVWKEGDKSFYFDTNVAYSVAQQNDWEATDPAFREANVQGKNLIEWLPGSTIWAGKRFYQRHDVHMIDFYYWDISGPGAGLENIDVGFGKLSLAATRSSEAGGSSSFASNNIYDYTNETANDVFDVRLAQMEINPGGTLELGVDYGRANLRDNYRLVDGASKDGWLFTAEHTQSVLKGFNKFVVQYATDSMTSQGKGLSQGSGVAFDNEKFAYNINNNGHMLRILDHGAISMGDNWDMMYVGMYQDINWDNDNGTKWWTVGIRPMYKWTPIMSTVMEIGYDNVESQRTGDKNNQYKITLAQQWQAGDSIWSRPAIRVFATYAKWDEKWGYDYTGNADNNANFGKAVPADFNGGSFGRGDSDEWTFGAQMEIWW | 3
OmpC (natural protein, E. coli, UniProt P06996 22-367, looked up, 35S-methionine and 35S-cysteine (radiolabel), Made as a monomer and seen as a trimer after assembly into EMM; also called 35S-labeled OmpC; major porin; source: in vitro translated, rabbit reticulocyte lysate (Promega), 35S-labelled; assembled into EMM) AEVYNKDGNKLDLYGKVDGLHYFSDNKDVDGDQTYMRLGFKGETQVTDQLTGYGQWEYQIQGNSAENENNSWTRVAFAGLKFQDVGSFDYGRNYGVVYDVTSWTDVLPEFGGDTYGSDNFMQQRGNGFATYRNTDFFGLVDGLNFAVQYQGKNGNPSGEGFTSGVTNNGRDALRQNGDGVGGSITYDYEGFGIGGAISSSKRTDAQNTAAYIGNGDRAETYTGGLKYDANNIYLAAQYTQTYNATRVGSLGWANKAQNFEAVAQYQFDFGLRPSLAYLQSKGKNLGRGYDDEDILKYVDVGATYYFNKNMSTYVDYKINLLDDNQFTRDAGINTDNIVALGLVYQF | 3
